Data published in paper PMC4837003.
Where two headings read alike, the source gives them in different places.

Assays:
[1] = biological target: HLA-DR1 (DRA*0101/DRB*010101), soluble extracellular domains (human)
[2] = biological target: HLA-DR1 (DRA*0101/DRB*010101), soluble extracellular domains (human); remark: listed apart in the source
[3] = biological target: HLA-A*0201 heavy chain with β2-microglobulin; assay: differential scanning fluorimetry
[4] = biological target: HLA-A*0201 heavy chain with β2-microglobulin; assay: circular dichroism
[5] = biological target: HLA-DR1 (DRA*0101/DRB*010101), soluble extracellular domains (human); assay: differential scanning fluorimetry

Row | Molecule | apparent Tm by DSF [3] | apparent Tm by CD [4] | further results
1 | influenza HA peptide |  |  | apparent Tm by DSF [1]: 82.1 °C; apparent Tm by DSF [2]: 83 °C
2 | SL9 peptide | 59 °C |  | 
3 | NS3_(1406(7N)-1415) peptide | 55.8 °C |  | 
4 | LLYGFVNYV [HUD_(87(2L,9V)-95) peptide] | 65.1 °C | 63 °C | 
5 | LGYGFVNYI [HUD peptide] | 44.8 °C |  | 
6 | ALGIGILTV [MART-1_(27(2L)-35) peptide] | 59.2 °C | 51 °C | half-life of the complex (slowest phase, peptide dissociation) [3]: 6.9 h
7 | YRAL [Min4 peptide] |  |  | other [5]: 67.8 °C

More lines, main results first:

Row | apparent Tm by DSF [3] | apparent Tm by CD [4] | Molecule | further results
8 | 67.3 °C |  | tyrosinase peptide (TYR) | 
9 | 62.2 °C |  | IMDQVPFSV [gp100_(209(2M)-217) peptide] | 
10 | 61.4 °C | 63 °C | YMDGFMSQV [TYR (T5F) peptide] | 
